# Experiments:
# [1] = target: EGF receptor (EGFR) on MDA231luc cells (luciferase-expressing derivative of EGFR-positive human brea (human (human breast carcinoma cells), UniProt P00533 25-1210)); assay: cell-based or functional assay
# [2] = target: EGF receptor (EGFR) on F98/EGFR rat glioma cells engineered to express 10^6 EGFR per cell (UniProt P00533 25-1210); assay: cell-based or functional assay
binder,measurement,setting,value
"EGF-SubA fusion protein (Cys-tag, linker, human EGF, linker, SubA 22-347) (other) MKESCAKKFQRQHMDSGGGGSGGGGSGGGGSMGNSDSECPLSHDGYCLHDGVCMYIEALDKYACNCVVGYIGERCQYRDLKWWELRSMADIGSEKPWYFDAIGLTETTMSLTDKNTPVVVSVVDSGVAFIGGLSDSEFAKFSFTQDGSPFPVKKSEALYIHGTAMASLIASRYGIYGVYPHALISSRRVIPDGVQDSWIRAIESIMSNVFLAPGEEKIINISGGQKGVASASVWTELLSRMGRNNDRLIVAAVGNDGADIRKLSAQQRIWPAAYHPVSSVNKKQDPVIRVAALAQYRKGETPVLHGGGITGSRFGNNWVDIAAPGQNITFLRPDAKTGTGSGTSEATAIVSGVLAAMTSCNPRATATELKRTLLESADKYPSLVDKVTEGRVLNAEKAISMFCKKNYIPVRQGRMSEEL","IC50 of cytotoxicity toward MDA-231luc cells (72 h, Cell Proliferation Assay)",[1],~0.05 nM
same,"IC50 of cytotoxicity toward F98/EGFR cells (72 h, Cell Proliferation Assay)",[2],0.005 nM
same,"fold difference in cytotoxicity, F98/EGFR cells against parental F-98 cells",[2],500 fold

# From US20100104550A1 (ADELAIDE RESEARCH AND INNOVATION, published 2010)
